Publication PMC9881579, “Reconfigurable asymmetric protein assemblies through implicit negative design” (Science (New York, N.Y.), 2022)

Legend:
Conditions in all cases: both partners purified
[1] = biological target: T1, LHD275B; assay: BLI; biotinylated protomer on streptavidin biosensors, designed partner in solution; 25 °C; 10 mM HEPES pH 7.4, 150 mM NaCl, 3 mM EDTA, 0.05% Surfactant P20, 1 mg/ml BSA; steady-state fit, 1:1 model
T1 construct: de novo designed protomer; BLI: one protomer of the pair was Avi-tagged, biotinylated and immobilised; source: E. coli BL21 LEMO, purified (Ni-NTA, SEC)

[2] = biological target: T1, LHD275B; assay: BLI; biotinylated protomer on streptavidin biosensors, designed partner in solution; 25 °C; 10 mM HEPES pH 7.4, 150 mM NaCl, 3 mM EDTA, 0.05% Surfactant P20, 1 mg/ml BSA; global kinetic fit, 1:1 model
[3] = biological target: T2, LHD202A; assay: BLI; biotinylated protomer on streptavidin biosensors, designed partner in solution; 25 °C; 10 mM HEPES pH 7.4, 150 mM NaCl, 3 mM EDTA, 0.05% Surfactant P20, 1 mg/ml BSA; steady-state fit, 1:1 model
T2 construct: de novo designed protomer; BLI: one protomer of the pair was Avi-tagged, biotinylated and immobilised; also called LHD202 protomer A; source: E. coli BL21 LEMO, purified (Ni-NTA, SEC)
T2 sequence (main, as listed by the source): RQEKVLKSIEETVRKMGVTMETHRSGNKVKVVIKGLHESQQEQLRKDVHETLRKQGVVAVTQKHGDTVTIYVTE

[4] = biological target: T2, LHD202A; assay: BLI; biotinylated protomer on streptavidin biosensors, designed partner in solution; 25 °C; 10 mM HEPES pH 7.4, 150 mM NaCl, 3 mM EDTA, 0.05% Surfactant P20, 1 mg/ml BSA; global kinetic fit, 1:1 model
[5] = biological target: T3, LHD278B; assay: BLI; biotinylated protomer on streptavidin biosensors, designed partner in solution; 25 °C; 10 mM HEPES pH 7.4, 150 mM NaCl, 3 mM EDTA, 0.05% Surfactant P20, 1 mg/ml BSA; steady-state fit, 1:1 model
T3 construct: de novo designed protomer; BLI: one protomer of the pair was Avi-tagged, biotinylated and immobilised; source: E. coli BL21 LEMO, purified (Ni-NTA, SEC)

[6] = biological target: T3, LHD278B; assay: BLI; biotinylated protomer on streptavidin biosensors, designed partner in solution; 25 °C; 10 mM HEPES pH 7.4, 150 mM NaCl, 3 mM EDTA, 0.05% Surfactant P20, 1 mg/ml BSA; global kinetic fit, 1:1 model
[7] = biological target: T4, LHD317B; assay: BLI; biotinylated protomer on streptavidin biosensors, designed partner in solution; 25 °C; 10 mM HEPES pH 7.4, 150 mM NaCl, 3 mM EDTA, 0.05% Surfactant P20, 1 mg/ml BSA; steady-state fit, 1:1 model
T4 construct: de novo designed protomer; BLI: one protomer of the pair was Avi-tagged, biotinylated and immobilised; source: E. coli BL21 LEMO, purified (Ni-NTA, SEC)

[8] = biological target: T4, LHD317B; assay: BLI; biotinylated protomer on streptavidin biosensors, designed partner in solution; 25 °C; 10 mM HEPES pH 7.4, 150 mM NaCl, 3 mM EDTA, 0.05% Surfactant P20, 1 mg/ml BSA; global kinetic fit, 1:1 model
[9] = biological target: T5, LHD284B; assay: BLI; biotinylated protomer on streptavidin biosensors, designed partner in solution; 25 °C; 10 mM HEPES pH 7.4, 150 mM NaCl, 3 mM EDTA, 0.05% Surfactant P20, 1 mg/ml BSA; steady-state fit, 1:1 model
T5 construct: de novo designed protomer; BLI: one protomer of the pair was Avi-tagged, biotinylated and immobilised; also called LHD284 protomer B; source: E. coli BL21 LEMO, purified (Ni-NTA, SEC)

[10] = biological target: T5, LHD284B; assay: BLI; biotinylated protomer on streptavidin biosensors, designed partner in solution; 25 °C; 10 mM HEPES pH 7.4, 150 mM NaCl, 3 mM EDTA, 0.05% Surfactant P20, 1 mg/ml BSA; global kinetic fit, 1:1 model
[11] = biological target: T6, LHD289B; assay: BLI; biotinylated protomer on streptavidin biosensors, designed partner in solution; 25 °C; 10 mM HEPES pH 7.4, 150 mM NaCl, 3 mM EDTA, 0.05% Surfactant P20, 1 mg/ml BSA; steady-state fit, 1:1 model
T6 construct: de novo designed protomer; BLI: one protomer of the pair was Avi-tagged, biotinylated and immobilised; source: E. coli BL21 LEMO, purified (Ni-NTA, SEC)

[12] = biological target: T6, LHD289B; assay: BLI; biotinylated protomer on streptavidin biosensors, designed partner in solution; 25 °C; 10 mM HEPES pH 7.4, 150 mM NaCl, 3 mM EDTA, 0.05% Surfactant P20, 1 mg/ml BSA; global kinetic fit, 1:1 model
[13] = biological target: T7, LHD101B (biotin on the Avi-tag where immobilised (Fig. S3D)); assay: BLI; biotinylated protomer on streptavidin biosensors, designed partner in solution; 25 °C; 10 mM HEPES pH 7.4, 150 mM NaCl, 3 mM EDTA, 0.05% Surfactant P20, 1 mg/ml BSA; steady-state fit, 1:1 model
T7 construct: de novo designed protomer; also called LHD101 protomer B; source: E. coli BL21 LEMO, purified (Ni-NTA, SEC)

[14] = biological target: T7, LHD101B; assay: BLI; biotinylated protomer on streptavidin biosensors, designed partner in solution; 25 °C; 10 mM HEPES pH 7.4, 150 mM NaCl, 3 mM EDTA, 0.05% Surfactant P20, 1 mg/ml BSA; global kinetic fit, 1:1 model
[15] = biological target: T8, LHD298B; assay: BLI; biotinylated protomer on streptavidin biosensors, designed partner in solution; 25 °C; 10 mM HEPES pH 7.4, 150 mM NaCl, 3 mM EDTA, 0.05% Surfactant P20, 1 mg/ml BSA; steady-state fit, 1:1 model
T8 construct: de novo designed protomer; BLI: one protomer of the pair was Avi-tagged, biotinylated and immobilised; also called LHD298 protomer B; source: E. coli BL21 LEMO, purified (Ni-NTA, SEC)

[16] = biological target: T8, LHD298B; assay: BLI; biotinylated protomer on streptavidin biosensors, designed partner in solution; 25 °C; 10 mM HEPES pH 7.4, 150 mM NaCl, 3 mM EDTA, 0.05% Surfactant P20, 1 mg/ml BSA; global kinetic fit, 1:1 model

B1: LHD275A (designed binder)
chain: GRQEKVLKSIEETVRKMGVEMLTFRAGNAVIVVIRGLHPEQAKQLLRDVSQTAHKQGVTVTLTFHGDVVFILVLVGASEEEQKHMQERIQELARIIHEAKRRGVSEEQLREIAEKMAKEIQEWG
Binder B1 has a Kd [1] of 4.5 ± 0.22 nM, a Kd [2] of 2.9 ± 0.01 nM and a koff [2] of 0.00041 s⁻¹. For the same binder, the kon [2] was 140000 M⁻¹ s⁻¹.

B2: LHD202B (designed binder)
chain: SVEFHIVNISEEQRQRIEEYVRRISKKEGTEVRFEKRDGELTIEVKNLHEKRLQEILEYIERVNK
B2 gave a Kd [3] of 2400 ± 170 nM, a Kd [4] of 4800 ± 250 nM and a koff [4] of 0.29 ± 0.05 s⁻¹. The kon [4] was 60000 M⁻¹ s⁻¹.

B3: LHD278A (designed binder)
chain: GRQEKVLKSIEETVRKMGVRMLTHRGGNAVIVVIEGLHPSQIKQLMQDVIKTAKKQGVTVTITVSGDIVVIMVVVGASDEEQEEARRLVQEIARALQEAKRKGANEEQLEQLLRELLERAEREG
Work on B3 yielded a Kd [5] of 3.4 ± 0.69 nM, a Kd [6] of 0.8 ± 0.003 nM and a koff [6] of 0.00022 s⁻¹. For the same binder, the kon [6] was 290000 M⁻¹ s⁻¹.

B4: LHD317A (designed binder)
chain: GRQEKVLKSIEETVRKMGVRMLTHRGGNAVIVVIEGLHPSQAEQLLRDVHRTAKKQGVTVHLVFTGDIVVIMVVVGASEEEQEEMHRLVREIAEALHEAKRKGANEEQLEQLLRELLERAEREG
Work on B4 yielded a Kd [7] of 56 ± 2.3 nM, a Kd [8] of 34.7 ± 0.05 nM and a koff [8] of 0.0051 s⁻¹. The kon [8] was 150000 M⁻¹ s⁻¹.

B5: LHD284A (designed binder)
chain: TDELLERLRQLFEELHERGTIIIVEVHINGERQTKYLILAPKEELKKHLERIREKIEREGSSEVEVKVTSGGTTWTFNEK
Binder B5 has a Kd [9] of 97 ± 13 nM, a Kd [10] of 8.9 ± 0.13 nM and a koff [10] of 0.0012 s⁻¹. The kon [10] was 130000 M⁻¹ s⁻¹.

B6: LHD289A (designed binder)
chain: GRQEKVLKSIEETVRKMGVTMLTHRHGNVVFVVILGLHKQQALQLLRDVHRTAHKQGVTLSITFSGDIVVIAVTVGASEEEKKEVRKIVKEIAKQLRHAETEEEAKEIVQRVIEEWQEEG
B6 gave a Kd [11] of 610 ± 120 nM, a Kd [12] of 1080 ± 39 nM and a koff [12] of 0.057 s⁻¹. It also gave a kon [12] of 53000 M⁻¹ s⁻¹.

B7: LHD101A (designed binder)
chain: GRQEKVLKSIEETVRKMGVTMETHRSGNEVKVVIKGLHIKQQRQLYRDVRETSKKQGVETEIEVEGDTVTIVVRE
modifications: biotin on the Avi-tag where immobilised (Fig. S3D, S24B)
In the case of B7, the Kd [13] is reported as 9.5 ± 0.76 nM, the Kd [14] is reported as 1.9 ± 0.04 nM and the koff [14] is reported as 0.0043 s⁻¹. It also gave a kon [14] of 2.2e+06 M⁻¹ s⁻¹.

B8: LHD298A (designed binder)
chain: GRQEKVLKSIEETVRKMGVTMETHRSGNTVKVVIKGLHESQQEQLHKDVEETVQKEGVFVLVSHHGDTVTIQVYE
Binder B8 has a Kd [15] of 16 ± 3 nM, a Kd [16] of 3.5 ± 0.01 nM and a koff [16] of 0.00022 s⁻¹. The kon [16] was 64000 M⁻¹ s⁻¹.
